# Target: the molecule itself
# Experiment: SEC-MALS
protein,measurement,value
"AtYoeB toxin (Atu2017) from Agrobacterium tumefaciens, GST-His tag removed (natural protein, source: E. coli BL21 (DE3), purified (NiNTA, HRV3c PreScission cleavage, Superdex 75); not shown: GST, C-terminal, cleaved) MKLVWTLSSWDDYEFWQRTDARMVEKINDLIRNAKRTPFAGLGKPEPLKGDMAGYWSRRITAEHRFVYRVSGSGSEQRLEVIQCRFHYQ",stoichiometry N,2

# From PMC7256200, “Identifying a Molecular Mechanism That Imparts Species-Specific Toxicity to YoeB Toxins” (Frontiers in Microbiology, 2020)
